Measurements taken from publication PMC8135044, “Lytic transglycosylase MltG cleaves in nascent peptidoglycan and produces short glycan strands” (The Cell Surface, 2021).

Biological target: T1, BsPBP2B (Bacillus subtilis, UniProt Q07868 1-713)
T1 construct: Not pulled down by Ni-NTA beads alone; also called class B PBP2B; source: E. coli BL21 (DE3), purified from membranes (Ni-NTA, thrombin, HiTrap SP ion exchange)
T1 sequence (looked up): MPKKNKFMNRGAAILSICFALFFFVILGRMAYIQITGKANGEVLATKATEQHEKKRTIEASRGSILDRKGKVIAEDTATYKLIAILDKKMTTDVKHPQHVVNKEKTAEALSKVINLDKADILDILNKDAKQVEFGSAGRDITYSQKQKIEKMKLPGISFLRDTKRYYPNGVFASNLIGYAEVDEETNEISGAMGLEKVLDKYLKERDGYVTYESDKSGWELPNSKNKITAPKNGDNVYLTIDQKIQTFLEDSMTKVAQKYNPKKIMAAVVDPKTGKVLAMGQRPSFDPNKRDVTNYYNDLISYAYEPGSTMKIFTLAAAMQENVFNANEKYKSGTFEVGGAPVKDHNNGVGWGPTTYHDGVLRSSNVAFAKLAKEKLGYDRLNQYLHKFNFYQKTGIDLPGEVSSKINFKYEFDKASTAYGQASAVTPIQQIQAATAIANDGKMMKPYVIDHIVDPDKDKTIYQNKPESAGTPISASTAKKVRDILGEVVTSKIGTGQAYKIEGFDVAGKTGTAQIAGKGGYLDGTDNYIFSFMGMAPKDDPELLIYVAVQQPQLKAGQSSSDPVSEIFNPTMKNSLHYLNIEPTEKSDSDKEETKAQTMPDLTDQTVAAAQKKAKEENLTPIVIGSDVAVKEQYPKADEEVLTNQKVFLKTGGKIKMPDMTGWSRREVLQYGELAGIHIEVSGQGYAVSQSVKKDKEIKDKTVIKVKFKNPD
Assay: SPR; PBP2B covalently bound to ampicillin immobilised on the chip; BsMltG injected as analyte, 0 to 500 nM; 25 C; 10 mM Tris/Maleate, 150 mM NaCl, 0.05% Triton X-100, pH 7.5; response at equilibrium fitted to one site saturation; three independent experiments
Settings: both partners purified

Kd: 128 ± 28 nM
B1: BsMltG (enzyme, Bacillus subtilis, UniProt O34758 1-360, looked up)
chain: MYINQQKKSFFNKKRIILSSIVVLFLIIGGAFLYGKSLLEPVEKDSKTTVNINIPSGSSVSAIASILKKNDVIKSEKAFQYYVKYKGASGFQAGFYHLNKGMDLDAIIQKLTSGATGYAFQITVTEGAQLTQIAAAIADETKYSKKQVIAKLDDETFINQLKKEFPDTVTNDVFNKNIKHPLEGYLFPATYPFNDPDTSLEDIIKAMIKQTNSYVETYKSEMKKNKVSVHKLLTMASLIEEEATEKADRHKIASVFYNRLKKKMPLQTDPTVLYAAGKHKDRVLYKDLEIDSPYNTYKNTGLTPGPIANAGMSSWEAALHPDKTDYLYFLAKSNGEVVFTKTLKEHNKAKEKYISSKNEK
notes: Named without 'His-' in the SPR and activity assays; also called YrrL; MltG from Bacillus subtilis; source: E. coli BL21 (DE3), purified from membranes (Ni-NTA, thrombin, HiTrap SP ion exchange)
